Source: article PMC6220267, “High‐affinity interactions and signal transduction between Aβ oligomers and TREM2” (EMBO Molecular Medicine, 2018)
Blank lines part the entries; values can stand above or below the binder they belong to.

Experiments:
[1] = molecular target: T1, Aβ42 fibrils (fibrillar Aβ42) (UniProt P05067 672-713); assay: pull-down; Aβ42 fibril pull-down: conditioned media with 5 mM EDTA incubated with Aβ42 fibrils 1 h at room temperature, fibrils pelleted at 18,000 g, washed with PBS; Western blot with V5 antibody; details: one partner purified
T1 construct: amyloid‐β 1-42 (Aβ42), cut product of the amyloid precursor protein APP; Fibrillar assembly of the peptide; also called fAβ; Aβ fibrils; source: Pinotsi et al, 2016

Aβ42 oligomers (soluble) = molecular target: T2, Aβ42 oligomers (soluble) (UniProt P05067 672-713); assay: BLI; optimized assay: Protein A sensors loaded to near-saturation with soluble TREM‐Fc‐V5 proteins in PBS; ligand in serial dilution (five concentrations); dissociation in PBS; 1:1 interaction model; details: both partners purified
T2 construct: amyloid‐β 1-42 (Aβ42), cut product of the amyloid precursor protein APP; Oligomeric assembly; also called Aβ oligomers; oligomeric Aβ; source: oligomers prepared as described (Stine et al, 2003)

Aβ42 monomers = molecular target: T3, Aβ42 monomers (UniProt P05067 672-713); assay: ELISA; plates coated overnight at 4°C with purified soluble TREM‐Fc proteins in 100 mM NaCO3 pH 11, blocked (Block Ace), incubated with Aβ42 monomers, oligomers or fibrils 1 h at room temperature; Aβ detected with 4G8‐HRP, OD450; details: both partners purified
T3 construct: amyloid‐β 1-42 (Aβ42), cut product of the amyloid precursor protein APP; also called monomeric Aβ; source: monomers prepared as described (Stine et al, 2003)

- binding result [1]: binds
- binding result (Aβ42 oligomers (soluble)): binds
- binding result (Aβ42 monomers): binds
B1: soluble mouse Trem2‐Fc (soluble ectodomain) (Fc fusion, UniProt Q99NH8 19-171, looked up)
chain: LNTTVLQGMAGQSLRVSCTYDALKHWGRRKAWCRQLGEEGPCQRVVSTHGVWLLAFLKKRNGSTVIADDTLAGTVTITLKNLQAGDAGLYQCQSLRGREAEVLQKVLVEVLEDPLDDQDAGDLWVPEESSSFEGAQVEHSTSRNQETSFPPTS
notes: Trem2, mouse, soluble ectodomain; also called sTrem2‐Fc; sTrem2‐FC; source: HEK293T, transiently transfected; conditioned media; purified from conditioned media (anti-human IgG Fc agarose beads)

- binding result (Aβ42 oligomers (soluble)): binds
B2: soluble TREML1‐Fc (human, soluble ectodomain) (Fc fusion, UniProt Q86YW5 16-162, looked up)
chain: QGIVGSLPEVLQAPVGSSILVQCHYRLQDVKAQKVWCRFLPEGCQPLVSSAVDRRAPAGRRTFLTDLGGGLLQVEMVTLQEEDAGEYGCMVDGARGPQILHRVSLNILPPEEEEETHKIGSLAENAFSDPAGSANPLEPSQDEKSIP
notes: TREML1, human, soluble ectodomain; also called sTREML1‐Fc; source: HEK293T, transiently transfected; conditioned media; purified from conditioned media (anti-human IgG Fc agarose beads)

- binding result (Aβ42 oligomers (soluble)): binds
B3: soluble mouse Treml1‐Fc (soluble ectodomain) (Fc fusion, UniProt Q8K558 21-175, looked up)
chain: DSHPEVLQAPVGSSILVQCHYRLQDVRALKVWCQFLQEGCHPLVTSAVDRRAPGNGRIFLTDLGGGLLQVEMVTLQEEDTGEYGCVVEGAAGPQTLHRVSLLVLPPVPGPREGEEAEDEKETYRIGTGSLLEDPSLDPSASAGPHEFRRRENSIP
notes: Treml1, mouse, soluble ectodomain; also called sTreml1‐Fc; source: HEK293T, transfected, purified from conditioned media (anti-human IgG Fc agarose beads)
